Measured values taken from paper PMC8671107 (Frontiers in Molecular Biosciences, 2021).
No end group written: not given here.

Legend:
[1] = molecular target: muscle-type nicotinic acetylcholine receptor from Torpedo californica electric organ (Torpedo californica (endogenous in electric organ)); test: radioligand binding
[2] = molecular target: neuronal human α7 nicotinic acetylcholine receptor expressed in GH4C1 cells (human) (UniProt P36544); test: radioligand binding
[3] = molecular target: T1, acetylcholine binding protein from Lymnaea stagnalis (Lymnaea stagnalis, UniProt P58154 20-229); test: radioligand binding; settings: both partners purified
T1 construct: also called AChBP; L. stagnalis AChBP

[4] = molecular target: T1, acetylcholine binding protein from …; test: MST; settings: both partners purified
[5] = molecular target: T1, acetylcholine binding protein from …; test: other fluorescence titration; settings: both partners purified
[6] = molecular target: T1, acetylcholine binding protein from …; test: radioligand binding; settings: both partners purified; remark: listed apart in the source

T1 sequence (P58154 20-229): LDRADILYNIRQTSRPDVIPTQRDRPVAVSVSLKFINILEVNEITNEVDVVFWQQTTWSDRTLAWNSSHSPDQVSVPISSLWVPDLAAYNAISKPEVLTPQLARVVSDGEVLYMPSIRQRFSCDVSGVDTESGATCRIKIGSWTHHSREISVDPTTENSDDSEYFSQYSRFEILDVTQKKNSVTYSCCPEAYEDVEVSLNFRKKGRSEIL
muscle-type nicotinic acetylcholine receptor from Torpedo californica electric organ (Torpedo californica (endogenous in electric organ)), sequence (P02710 25-461 limits assumed, chain 1 of 4): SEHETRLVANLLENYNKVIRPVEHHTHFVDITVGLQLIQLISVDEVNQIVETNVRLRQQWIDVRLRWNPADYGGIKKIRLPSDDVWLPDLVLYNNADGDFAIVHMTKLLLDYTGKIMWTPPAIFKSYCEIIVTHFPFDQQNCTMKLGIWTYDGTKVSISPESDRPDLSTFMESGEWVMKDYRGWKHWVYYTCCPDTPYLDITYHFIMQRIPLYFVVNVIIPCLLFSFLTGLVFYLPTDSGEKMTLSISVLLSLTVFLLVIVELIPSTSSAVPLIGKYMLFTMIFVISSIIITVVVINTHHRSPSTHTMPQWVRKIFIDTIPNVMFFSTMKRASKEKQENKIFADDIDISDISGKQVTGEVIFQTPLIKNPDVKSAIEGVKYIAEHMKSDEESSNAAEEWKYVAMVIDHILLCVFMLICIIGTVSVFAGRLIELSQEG
muscle-type nicotinic acetylcholine receptor from Torpedo californica electric organ (Torpedo californica (endogenous in electric organ)), sequence (P02712 25-493 limits assumed, chain 2 of 4, further chain): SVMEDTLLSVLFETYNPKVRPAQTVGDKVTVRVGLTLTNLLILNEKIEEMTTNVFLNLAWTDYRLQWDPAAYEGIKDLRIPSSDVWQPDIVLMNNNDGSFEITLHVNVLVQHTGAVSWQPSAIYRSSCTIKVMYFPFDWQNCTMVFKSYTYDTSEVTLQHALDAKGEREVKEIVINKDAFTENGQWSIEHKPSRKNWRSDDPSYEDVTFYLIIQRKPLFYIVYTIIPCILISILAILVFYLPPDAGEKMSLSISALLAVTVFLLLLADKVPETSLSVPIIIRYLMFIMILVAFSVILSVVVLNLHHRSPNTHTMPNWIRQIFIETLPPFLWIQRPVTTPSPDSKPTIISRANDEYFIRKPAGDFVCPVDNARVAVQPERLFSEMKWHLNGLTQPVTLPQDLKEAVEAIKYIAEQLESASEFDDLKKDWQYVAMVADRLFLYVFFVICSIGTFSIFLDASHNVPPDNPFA
muscle-type nicotinic acetylcholine receptor from Torpedo californica electric organ (Torpedo californica (endogenous in electric organ)), sequence (P02714 18-506 limits assumed, chain 3 of 4, further chain): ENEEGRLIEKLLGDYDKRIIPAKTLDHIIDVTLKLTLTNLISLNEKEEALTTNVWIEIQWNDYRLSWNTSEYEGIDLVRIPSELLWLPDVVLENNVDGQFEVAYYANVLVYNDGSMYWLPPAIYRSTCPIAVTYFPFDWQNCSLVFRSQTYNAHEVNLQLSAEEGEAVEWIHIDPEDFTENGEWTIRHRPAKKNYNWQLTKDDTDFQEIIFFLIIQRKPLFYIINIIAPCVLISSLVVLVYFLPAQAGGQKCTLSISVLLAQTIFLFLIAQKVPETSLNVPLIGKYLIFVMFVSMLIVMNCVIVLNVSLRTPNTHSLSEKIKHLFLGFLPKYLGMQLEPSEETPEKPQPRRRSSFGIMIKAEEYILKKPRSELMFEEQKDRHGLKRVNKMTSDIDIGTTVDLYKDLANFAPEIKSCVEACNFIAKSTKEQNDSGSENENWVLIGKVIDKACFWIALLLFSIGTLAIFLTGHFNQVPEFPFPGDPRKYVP
muscle-type nicotinic acetylcholine receptor from Torpedo californica electric organ (Torpedo californica (endogenous in electric organ)), sequence (P02718 22-522 limits assumed, chain 4 of 4, further chain): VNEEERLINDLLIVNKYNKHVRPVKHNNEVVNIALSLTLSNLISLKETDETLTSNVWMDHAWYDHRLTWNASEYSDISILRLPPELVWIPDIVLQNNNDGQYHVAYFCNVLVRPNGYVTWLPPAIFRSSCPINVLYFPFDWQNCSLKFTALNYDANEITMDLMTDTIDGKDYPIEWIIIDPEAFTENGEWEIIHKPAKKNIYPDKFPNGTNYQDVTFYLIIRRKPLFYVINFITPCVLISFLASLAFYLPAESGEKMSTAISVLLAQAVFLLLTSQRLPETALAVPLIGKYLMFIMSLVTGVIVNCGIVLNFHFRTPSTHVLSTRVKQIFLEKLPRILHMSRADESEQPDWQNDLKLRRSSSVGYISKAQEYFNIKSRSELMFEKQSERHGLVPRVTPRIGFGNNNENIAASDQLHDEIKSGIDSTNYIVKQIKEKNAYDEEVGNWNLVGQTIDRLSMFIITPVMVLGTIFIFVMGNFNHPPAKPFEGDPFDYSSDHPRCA
neuronal human α7 nicotinic acetylcholine receptor expressed in GH4C1 cells (human), sequence (P36544 23-502): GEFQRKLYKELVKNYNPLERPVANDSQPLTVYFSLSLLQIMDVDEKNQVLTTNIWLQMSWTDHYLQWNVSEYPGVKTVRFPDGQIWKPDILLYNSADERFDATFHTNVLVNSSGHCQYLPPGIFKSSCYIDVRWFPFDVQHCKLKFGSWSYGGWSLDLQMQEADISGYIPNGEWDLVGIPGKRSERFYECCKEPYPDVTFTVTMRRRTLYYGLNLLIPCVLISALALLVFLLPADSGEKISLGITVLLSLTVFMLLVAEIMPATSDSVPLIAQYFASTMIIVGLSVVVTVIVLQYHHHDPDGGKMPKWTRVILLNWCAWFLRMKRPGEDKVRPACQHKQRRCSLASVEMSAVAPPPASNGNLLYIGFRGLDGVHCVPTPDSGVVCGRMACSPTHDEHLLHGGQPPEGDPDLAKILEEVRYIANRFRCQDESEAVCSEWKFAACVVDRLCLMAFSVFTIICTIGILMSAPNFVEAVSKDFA

HOBDI-BF2–α-CbTx (from UniProt P01391 1-71) (natural protein)
IC50 [1]: 3.88 nM | IC50 [2]: 27 nM

HOBDI-BF2–Aze (fraction 4, label at Lys6) (peptide)
IC50 [1]: 172 nM

α-cobratoxin (from UniProt P01391 1-71) (natural protein)
IC50 [1]: 0.57 nM | IC50 [2]: 5.4 nM

B1: α-cobratoxin (natural protein)
chain: IRCFITPDITSKDCPNGHVCYTKTWCDAFCSIRGKRVDLGCAATCPTVKTGVDIQCCSTDNCNPFPTRKRP
IC50 [3]: 28 nM

B2: HOBDI-BF2–α-CbTx (natural protein)
chain: B1 chain
Kd [4]: 194 ± 89 nM | IC50 [3]: 67 nM | Kd [5]: ~200 nM

B3: ^125I-α-bungarotoxin (natural protein)
chain: IVCHTTATSPISAVTCPPGENLCYRKMWCDAFCSSRGKVVELGCAATCPSKKPYEEVTCCSTDKCNPHPKQRPG
binding result [6]: binds

B4: Fraction 6 of p-HOBDI-BF2-modified azemiopsin (mono-modified product contaminated with a di-labeled product) (peptide)
peptide: DNWWPKPPHQGPRPPRPRPKP-NH2
modifications: also: one p-HOBDI-BF2 label, position not given here
IC50 [1]: 210 nM

B5: Fraction 5 of p-HOBDI-BF2-modified azemiopsin (mono-modified product) (peptide)
peptide: DNWWPKPPHQGPRPPRPRPKP-NH2
modifications: also: one p-HOBDI-BF2 label, position not given here
IC50 [1]: 128 nM

B6: azemiopsin (peptide)
peptide: DNWWPKPPHQGPRPPRPRPKP-NH2
IC50 [1]: 7.3 nM
